The text below walks through data of the supplement of paper PMC12455559.

± gives the standard deviation of the averaged measurements.

The nature of data set [1]: melting temperature (DSF); higher = more thermostable. In a few lines: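 After expression in E. coli C41(DE3), the candidate enzymes were bound to nickel beads and released with SUMO protease. Their melting temperature was found by differential scanning fluorimetry with Sypro Orange on a Bio-Rad CFX96. Each sealed PCR plate well held 45 μL enzyme (0 to 0.3 mg/mL) plus 5 μL 5X dye, and fluorescence was read for 250 cycles from 25 °C at 0.3 °C per cycle (ramp 0.3 °C/s).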

Data set [2] is described as follows: purified protein yield per well (BCA); higher = higher soluble expression. A digest of the protocol: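 On an OT-2 robot, lysed cells were processed by binding protein to Ni-charged magnetic beads and releasing it with SUMO protease. Expression took place in E. coli C41(DE3), in 2 mL autoinduction cultures with 100 µg/mL kanamycin, for 2 h at 37 °C followed by 40 h at 18 °C. The Pierce Rapid Gold BCA kit was used to quantify purified protein yield in each well, with values under 25 ug (0.1 mg/mL) below the detection threshold.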

A short description of data set [3]: PET hydrolysis, aromatic products released after 48 h (umol product/mg enzyme); higher = more PET depolymerization activity. A digest of the protocol:
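Sealed plates containing 3.5 mg PET (amorphous film or crystalline powder), 450 μL buffer and 5 μg (50 μL) tagless candidate enzyme were held 48 h at 40 or 60 °C with no shaking. Supernatants were then read at 260 and 280 nm against buffer blanks. The aromatic product detected this way, per mg enzyme, defines PET hydrolysis activity.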

The mark [4] stands for this setting: substrate: aFilm, 40 °C, pH 5.5.
Where [5] appears, read: substrate: aFilm, 40 °C, pH 6.5.
Where [6] appears, read: substrate: aFilm, 40 °C, pH 7.5.
Setting [7] is: substrate: aFilm, 60 °C, pH 5.5.
Where [8] appears, read: substrate: aFilm, 60 °C, pH 6.5.
Where [9] appears, read: substrate: aFilm, 60 °C, pH 7.5.
The mark [10] stands for this setting: substrate: cryPow, 40 °C, pH 4.5.
Where [11] appears, read: substrate: cryPow, 40 °C, pH 5.5.
Where [12] appears, read: substrate: cryPow, 40 °C, pH 6.5.
Where [13] appears, read: substrate: cryPow, 40 °C, pH 7.5.
Setting [14] is: substrate: cryPow, 60 °C, pH 4.5.
[15] abbreviates: substrate: cryPow, 60 °C, pH 5.5.
[16] abbreviates: substrate: cryPow, 60 °C, pH 6.5.
[17] abbreviates: substrate: cryPow, 60 °C, pH 7.5.
The mark [18] stands for this setting: substrate: cryPow, 40 °C, pH 8.5.

On to “AEAADNPYQRGPDPTLASVAATRGPFATAQATVPAGNGFNGGYVYYPTDTSLGTWGAVAIVPGYSALFADEEAWMGPWLASFGFVVLGIETNSRTDGADARATQLLAALDYLTQSSPVRHRVDANRLGVMGHSAGGAGTLMAALRRPSLKSAVGLAPGAPGNSLNMSTTQVPTMLISGQNDGTVTPSYVQGIYNTLPATVEHAWAELAGNDHLSFTRPNPTEMRILIPWLKIFLDNDTRYTQFLCPLADSTGVSRYSATCPLVPPGGPTAPPTVTPPPPTPTTPSPTTPPTSAACTATYRTVNSWSGGFQGEVTVTAGRAAINGWTVRWDLGNGQSISQVWNGTLSTSGSTATVRNVSYNGSLAPAASTGFGFLGTGAPAIPRLTCTSP [ESM037]”, for which, in data set [1], the melting temperature stood at 73.3 C. The “purified protein yield per well” value in data set [2] came out at 358 µg. Besides, the PET hydrolysis is less than 3 in data set [3] (substrate: aFilm, 40 °C, pH 4.5); less than 3 in data set [3] (setting [4]); less than 3 in data set [3] (setting [5]); less than 3 in data set [3] (setting [6]); less than 3 in data set [3] (substrate: aFilm, 60 °C, pH 4.5); less than 3 in data set [3] (setting [7]). The PET hydrolysis in data set [3] (setting [8]), in data set [3] (setting [9]), in data set [3] (setting [10]), in data set [3] (setting [11]), in data set [3] (setting [12]) and in data set [3] (setting [13]) was less than 3 each time. The PET hydrolysis in data set [3] (setting [14]), in data set [3] (setting [15]), in data set [3] (setting [16]) and in data set [3] (setting [17]) was less than 3 each time.

In data set [1], “AENPHQRGPNPTVAALEAAAGPFAVAKVSVPGGHGFGGGTITYPTDTSQGTFGAVAVSPGFIESEGAIAWFGPRLASHGFVVITISTNGLFDQPDARGAQLLAALDYVTKSSAVRDRVDPARLAVMGHSMGGGGALYATAQRPALKASIPLLAWSNTKSWGSVRVPTMVIGAENDFIASVGSHSEPFYQSLGGEKAYLEMNDADHFVTNSPTPTVGKLTVSWLKRFMDNDTRYDQFLCPAPPVGGPISEYRDTCPYI [DP017]” showed a melting temperature of 49.6 C. Further, the “purified protein yield per well” value in data set [2] worked out at 30 µg. The PET hydrolysis in data set [3] (setting [11]) turned out to be 4; in data set [3] (setting [12]) it was 11; in data set [3] (setting [13]) it was 13; in data set [3] (setting [18]), 6.

As for “AENPYERGPAPTTASIEALRGPFATAETTVSSLSVRGFGGGTIHYPTSTAEGTFGAVAVAPGYTASQSSLSWLGPRLASQGFVVFVIDTNSRYDQPASRGDQLLAALDYLTTSSSVRGRIDASRLGVMGHSMGGGGALEATKDRPSLQASIPLTPWNTTKTWSTVRTPTLVVGAEDDSVAPVRTHAEPFYEGLPSTLDKAYLELAGASHFAPNSSNTTIAKYSIAWLKRFVDDDTRYEQFLCPAPRGTAISEYRDTCPHP [TEP110]”, the melting temperature in data set [1] is 47.2 C. Besides, the “purified protein yield per well” value in data set [2] was 48.9 µg. The PET hydrolysis in data set [3] (setting [10]), in data set [3] (setting [11]), in data set [3] (setting [12]) and in data set [3] (setting [13]) was less than 3 each time.

“AENPYQRGPDPTLAALAASAGPYPIMETVVGSAEVTNFGGASIYYPAGTADGTFGGVAVTPGFLGPRSTMEWVARRVASHGFVVINIDTLERNDTPPLRARQMLAALDYLTGASAVRDRVDPTRLAVMGHSMGGGGSLQASRQRPQLKAAVPLTPWSNDKDFSADVVPTLIIGAELDDTAPVAEHAEPFFESIAAARKAYLELNDAEHRAPIRTNETIGTYSVAWLKRFVDDDTRYEQFLCPPPAPSAAIEEFRGTCPSS [TEP106]” returned a melting temperature in data set [1] of 41.5 C. In addition, the “purified protein yield per well” value in data set [2] worked out at 87.7 µg. In addition, the PET hydrolysis in data set [3] (setting [10]), in data set [3] (setting [11]), in data set [3] (setting [12]), in data set [3] (setting [13]), in data set [3] (setting [14]) and in data set [3] (setting [15]) was less than 3 in each case. Also, the PET hydrolysis in data set [3] (setting [16]) and in data set [3] (setting [17]) was less than 3 each time.

“AESPYQRGPDPTRESVAASRGTFATAEVSVPAGNGFGGGVIYYPTDTSQGTFGGVAIVPGYTATWAAEGAWMGHWLASFGFVVIGIDTINRNDWDTARGTQLLAALDYLTQRSSVRNRVDANRLAVMGHSMGGGGAMHAALQRPSLKAAIGLAPFSPSQNLTNMRVPTLLVAGQNDTTTTPTSILNLYNGIPATTEKAYLELTGAGHGFPTSANSVMTRKVIPWLKIFVDHDTRYHQFLCPLLDWTGITAYRSSCPLNPPGGPTGSTFSLVGADSGKCVDVPGASRTNGTGLITYTCNGASNQRWTQTAANELRIYDNSKCMEAGTSAGSRAVITSCTGGNGQKWTFNANGTITHAQSGLCLYVNGGSTANQAAVIVWTCHGGSNQVWTRQP [TEP163]”: the melting temperature in data set [1] worked out at 73 C. The “purified protein yield per well” value in data set [2] was 148 µg. Also, the PET hydrolysis in data set [3] (setting [10]) was less than 3; in data set [3] (setting [11]) it was 8; in data set [3] (setting [12]) it was 8; in data set [3] (setting [13]), 5; in data set [3] (setting [14]), less than 3; in data set [3] (setting [15]), less than 3. The values for the PET hydrolysis in data set [3] (setting [16]) and in data set [3] (setting [17]) were 3 and less than 3, respectively.

As to “AGFEKGPDPTTASVTADRGSYDIAQVDVPKGSGTGFADGTIYYPKSTADGTFGAVAVIPGFLEPKSAIDWYGPRLASQGFVVMTLDTTSVFDTPDSRGGQLLAALDYLTSKSTVKDRIDPNRLAVVGHSMGGGGTLSAAANRPNLKAAVALAPWHVSAPLTSVKTPTMIFGSDNDFIAPDGTFAKPFYDGISNAPEKAYVRLKNAGHMAYVFPDKRIAEYTLSWLKRYVDDDTRYTQFLCPGPTNESTIAAYKSTCPM [DP093]”, the melting temperature in data set [1] turned out to be 46.6 C. Moreover, the “purified protein yield per well” value in data set [2] amounted to 225 µg. Besides, the PET hydrolysis is less than 3 in data set [3] (setting [4]); less than 3 in data set [3] (setting [5]); less than 3 in data set [3] (setting [6]); less than 3 in data set [3] (substrate: aFilm, 40 °C, pH 8.5); less than 3 in data set [3] (setting [7]); less than 3 in data set [3] (setting [8]). Besides, the PET hydrolysis is less than 3 in data set [3] (setting [9]); less than 3 in data set [3] (substrate: aFilm, 60 °C, pH 8.5); 4 in data set [3] (setting [11]); 1.5 ± 2.1 in data set [3] (setting [12]); less than 3 in data set [3] (setting [13]); less than 3 in data set [3] (setting [18]). Besides, the PET hydrolysis in data set [3] (setting [15]) was less than 3; in data set [3] (setting [16]) it was less than 3; in data set [3] (setting [17]), less than 3; in data set [3] (substrate: cryPow, 60 °C, pH 8.5), less than 3.
